Data on six substances can be found in the supplement of paper PMC5998384.

In series [1] the test system is HeLa Kyoto. Put plainly: solubility in G1/S (NP-40 vs SDS abundance) (log2 ratio); higher = more soluble. To be noted: cell cycle stage: G1/S.
Series [2] concerns HeLa Kyoto. The experiment in a line: melting temperature (median over replicates), in situ; higher = more thermally stable.
For series [3], the system named is HeLa Kyoto. Put plainly: solubility change mitosis vs G1/S (difference of NP-40 vs SDS log2 ratios) (log2 ratio difference); higher = more soluble in mitosis.
Series [4] concerns HeLa Kyoto. Put plainly: thermal stability score vs G1/S (z-score of summed log2 fold changes over temperatures); higher = more thermally stable than in G1/S.
Setting [5] is: cell cycle stage: early G1 (4.5 h after nocodazole release).
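Wherever melting temperature (median over replicates), in situ is given: HeLa Kyoto cells synchronized by double thymidine or nocodazole block, proteins quantified by TMT10plex mass spectrometry, three independent biological replicates.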
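Wherever solubility change mitosis vs G1/S (difference of NP-40 vs SDS log2 ratios) is given: synchronized HeLa Kyoto cells (double thymidine block for G1/S, nocodazole release for mitosis), protein amounts in NP-40 versus SDS lysates quantified by mass spectrometry, three biological replicates.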
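Wherever solubility in G1/S (NP-40 vs SDS abundance) is given: HeLa Kyoto cells arrested at G1/S by double thymidine block, proteins quantified by TMT10plex mass spectrometry in mild NP-40 versus SDS extracts, three biological replicates.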
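Wherever thermal stability score vs G1/S (z-score of summed log2 fold changes over temperatures) is given: synchronized HeLa Kyoto cells, proteins quantified by TMT10plex mass spectrometry, three biological replicates, mitosis taken 0.5 h after nocodazole release, G1/S directly after double thymidine block.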

With “MVHIKKGELTQEEKELLEVIGKGTVQEAGTLLSSKNVRVNCLDENGMTPLMHAAYKGKLDMCKLLLRHGADVNCHQHEHGYTALMFAALSGNKDITWVMLEAGAETDVVNSVGRTAAQMAAFVGQHDCVTIINNFFPRERLDYYTKPQGLDKEPKLPPKLAGPLHKIITTTNLHPVKIVMLVNENPLLTEEAALNKCYRVMDLICEKCMKQRDMNEVLAMKMHYISCIFQKCINFLKDGENKLDTLIKSLLKGRASDGFPVYQEKIIRESIRKFPYCEATLLQQLVRSIAPVEIGSDPTAFSVLTQAITGQVGFVDVEFCTTCGEKGASKRCSVCKMVIYCDQTCQKTHWFTHKKICKNLKDIYEKQQLEAAKEKRQEENHGKLDVNSNCVNEEQPEAEVGISQKDSNPEDSGEGKKESLESEAELEGLQDAPAGPQVSEE [ANKMY2]”, the “solubility in G1/S (log2)” value in the series on HeLa Kyoto [1] was found to be 0.124. The melting temperature with HeLa Kyoto [2] (cell cycle stage: G1/S) was 50.1 °C. Besides, in the series on HeLa Kyoto [3], the “solubility change mitosis (log2)” value was -0.16. Further, the thermal stability score with HeLa Kyoto [4] (setting [5]) is -0.173; in the series on HeLa Kyoto [4] (cell cycle stage: mitosis), -0.528.
On to “MRSRSNSGVRLDGYARLVQQTILCYQNPVTGLLSASHEQKDAWVRDNIYSILAVWGLGMAYRKNADRDEDKAKAYELEQNVVKLMRGLLQCMMRQVAKVEKFKHTQSTKDSLHAKYNTATCGTVVGDDQWGHLQVDATSLFLLFLAQMTASGLRIIFTLDEVAFIQNLVFYIEAAYKVADYGMWERGDKTNQGIPELNASSVGMAKAALEAIDELDLFGAHGGRKSVIHVLPDEVEHCQSILFSMLPRASTSKEIDAGLLSIISFPAFAVEDVNLVNVTKNEIISKLQGRYGCCRFLRDGYKTPREDPNRLHYDPAELKLFENIECEWPVFWTYFIIDGVFSGDAVQVQEYREALEGILIRGKNGIRLVPELYAVPPNKVDEEYKNPHTVDRVPMGKVPHLWGQSLYILSSLLAEGFLAAGEIDPLNRRFSTSVKPDVVVQVTVLAENNHIKDLLRKHGVNVQSIADIHPIQVQPGRILSHIYAKLGRNKNMNLSGRPYRHIGVLGTSKLYVIRNQIFTFTPQFTDQHHFYLALDNEMIVEMLRIELAYLCTCWRMTGRPTLTFPISRTMLTNDGSDIHSAVLSTIRKLEDGYFGGARVKLGNLSEFLTTSFYTYLTFLDPDCDEKLFDNASEGTFSPDSDSDLVGYLEDTCNQESQDELDHYINHLLQSTSLRSYLPPLCKNTEDRHVFSAIHSTRDILSVMAKAKGLEVPFVPMTLPTKVLSAHRKSLNLVDSPQPLLEKVPESDFQWPRDDHGDVDCEKLVEQLKDCSNLQDQADILYILYVIKGPSWDTNLSGQHGVTVQNLLGELYGKAGLNQEWGLIRYISGLLRKKVEVLAEACTDLLSHQKQLTVGLPPEPREKIISAPLPPEELTKLIYEASGQDISIAVLTQEIVVYLAMYVRAQPSLFVEMLRLRIGLIIQVMATELARSLNCSGEEASESLMNLSPFDMKNLLHHILSGKEFGVERSVRPIHSSTSSPTISIHEVGHTGVTKTERSGINRLRSEMKQMTRRFSADEQFFSVGQAASSSAHSSKSARSSTPSSPTGTSSSDSGGHHIGWGERQGQWLRRRRLDGAINRVPVGFYQRVWKILQKCHGLSIDGYVLPSSTTREMTPHEIKFAVHVESVLNRVPQPEYRQLLVEAIMVLTLLSDTEMTSIGGIIHVDQIVQMASQLFLQDQVSIGAMDTLEKDQATGICHFFYDSAPSGAYGTMTYLTRAVASYLQELLPNSGCQMQ [PHKA2]”, for which, in the series on HeLa Kyoto [1], the “solubility in G1/S (log2)” value came to 0.00161. The melting temperature in the series with HeLa Kyoto [2] (cell cycle stage: G1/S) is 52.6 °C; in the series with HeLa Kyoto [2] (cell cycle stage: mitosis) it was 51.7 °C. In the series with HeLa Kyoto [3], the “solubility change mitosis (log2)” value was -0.229. For the same substance, the thermal stability score in the series on HeLa Kyoto [4] (setting [5]) is 0.315; in the series on HeLa Kyoto [4] (cell cycle stage: mitosis), -0.217.
With MON2, the “solubility in G1/S (log2)” value in the series with HeLa Kyoto [1] was -0.103. In addition, the results for the melting temperature in the series on HeLa Kyoto [2] (cell cycle stage: G1/S) and in the series with HeLa Kyoto [2] (cell cycle stage: mitosis) were 49.8 °C and 50.1 °C, respectively. Besides, the “solubility change mitosis (log2)” value in the series with HeLa Kyoto [3] is -0.108. For the same substance, the thermal stability score is -0.177 with HeLa Kyoto [4] (setting [5]) and 0.256 in the series with HeLa Kyoto [4] (cell cycle stage: mitosis).
Regarding “MESMFSSPAEAALQRETGVPGLLTPLPDLDGVYELERVAGFVRDLGCERVALQFPDQLLGDAVAVAARLEETTGSKMFILGDTAYGSCCVDVLGAEQAGAQALIHFGPACLSPPARPLPVAFVLRQRSVALELCVKAFEAQNPDPKAPVVLLSEPACAHALEALATLLRPRYLDLLVSSPAFPQPVGSLSPEPMPLERFGRRFPLAPGRRLEEYGAFYVGGSKASPDPDLDPDLSRLLLGWAPGQPFSSCCPDTGKTQDEGARAGRLRARRRYLVERARDARVVGLLAGTLGVAQHREALAHLRNLTQAAGKRSYVLALGRPTPAKLANFPEVDVFVLLACPLGALAPQLSGSFFQPILAPCELEAACNPAWPPPGLAPHLTHYADLLPGSPFHVALPPPESELWETPDVSLITGDLRPPPAWKSSNDHGSLALTPRPQLELAESSPAASFLSSRSWQGLEPRLGQTPVTEAVSGRRGIAIAYEDEGSG [DPH2]”, the “solubility in G1/S (log2)” value in the series on HeLa Kyoto [1] came out at 0.268. Also, the melting temperature in the series on HeLa Kyoto [2] (cell cycle stage: G1/S) was determined as 53.9 °C; in the series with HeLa Kyoto [2] (cell cycle stage: mitosis), 53.4 °C. Besides, the “solubility change mitosis (log2)” value in the series on HeLa Kyoto [3] is -0.0726. Also, the values for the thermal stability score in the series with HeLa Kyoto [4] (setting [5]) and with HeLa Kyoto [4] (cell cycle stage: mitosis) were -0.452 and -1.28, respectively.
Turning to VPS13C, in the series with HeLa Kyoto [1], the “solubility in G1/S (log2)” value is -0.229. In addition, the melting temperature amounted to 52.7 °C in the series on HeLa Kyoto [2] (cell cycle stage: G1/S) and 53.1 °C with HeLa Kyoto [2] (cell cycle stage: mitosis). The “solubility change mitosis (log2)” value in the series with HeLa Kyoto [3] is -0.127. The figures for the thermal stability score in the series on HeLa Kyoto [4] (setting [5]) and in the series with HeLa Kyoto [4] (cell cycle stage: mitosis) were -0.0535 and -0.882, respectively.
As to “MPKVKSGAIGRRRGRQEQRRELKSAGGLMFNTGIGQHILKNPLIINSIIDKAALRPTDVVLEVGPGTGNMTVKLLEKAKKVVACELDPRLVAELHKRVQGTPVASKLQVLVGDVLKTDLPFFDTCVANLPYQISSPFVFKLLLHRPFFRCAILMFQREFALRLVAKPGDKLYCRLSINTQLLARVDHLMKVGKNNFRPPPKVESSVVRIEPKNPPPPINFQEWDGLVRITFVRKNKTLSAAFKSSAVQQLLEKNYRIHCSVHNIIIPEDFSIADKIQQILTSTGFSDKRARSMDIDDFIRLLHGFNAEGIHFS [DIMT1]”, in the series on HeLa Kyoto [1], the “solubility in G1/S (log2)” value was -0.509. For the same substance, the results for the melting temperature in the series on HeLa Kyoto [2] (cell cycle stage: G1/S) and in the series on HeLa Kyoto [2] (cell cycle stage: mitosis) were 54.2 °C and 53.2 °C, respectively. The “solubility change mitosis (log2)” value with HeLa Kyoto [3] came out at 0.276. The thermal stability score with HeLa Kyoto [4] (setting [5]) was 0.644; in the series on HeLa Kyoto [4] (cell cycle stage: mitosis) it was 1.74.
